{"source": "paper PMC12669751", "about": "“Immunodominant antibodies against hemagglutinin in ferrets following infection with 2018 to 2019 influenza vaccine strains” (NPJ Vaccines, 2025)", "binders": {"B1": {"name": "monoclonal antibody FluA-20 (antibody, V domains shown)", "VH": "QVQLEESGPGLVKPSETLSLTCSVSGVSVTSDIYYWTWIRQPPGKGLEWIGYIFYNGDTNYNPSLKSRVTMSIDTSKNEFSLRLTSVTAADTAVYFCARGTEDLGYCSSGSCPNHWGQGTLVTVSS", "VL": "DIVMTQSPSSLSASIGDRVTITCRPSQNIRSFLNWFQHKPGKAPKLLIYAASNLQSGVPSRFSGSGSGTEFTLTIRSLQPEDFATYYCQQSYNTPPTFGQGTKVEIK", "notes": "also called FluA-20 mAb; pan-H3 anti-HA1 mAb; copies: 2 + 2"}}, "target": "TX/50 cell-version rHA1 (A/Texas/50/2012(H3N2) HA1) (Influenza A virus …, UniProt R4L1D1, strain)", "assay": "BLI", "conditions": "one partner purified", "data": [{"binder": "B1", "values": [{"measurement": "binding result", "value": "binds"}]}]}
